Measurements reported in publication PMC4132065 (2014).

B1: LexA BD-Pxa2_NBD-CT [S. cerevisiae] / Gal4 AD-Pxa1_NBD-CT [S. cerevisiae] (parent complex)
chain 1: GNDMTADFITNRRLLVTASSSIGRFVELKRNIQQLRGIRLRLNKFNDLLDANKGDDEKEPRDERCIVEYDDSRIKFENIPLITPANQVLVPELSFDLKHGNHLLIIGPNGCGKSSLFRILGGLWPIRATPNKNHQSKLIMPRRTVDRDCAIFYLPQRPYMGNRSTFREQIIYPDSIEQFKERYHNDYDLGDADLIKILQLLDLEDLVTENMSLLLAQRTSKNDSQQLSTEDNQSPCAIKVRDAFSIVRNWSEELTIGVQQRLAMARMYYHKPKFAVLDECTSAVAPEMEQRMYENAQNFGISLISVCHRTSLWHFHNYLLKFDGKGGYQFGPFNPKERLCNEEKLLELNAILDQQVPLWERKLKDLTIAKESNIIRKSETNLNLFEKIEDPKTSKSNALFNANKGQRITSPTGQETSKRLPLFSQPSSSASSNLLRNNKSLNKKVKTKKEEGKER
chain 2: SRLMHSIKDISQLTGYTNRIFTLLSVLHRVHSLNFNYGAVPSILSIRTEDASRNSNLLPTTDNSQDAIRGTIQRNFNGIRLENIDVIIPSVRASEGIKLINKLTFQIPLHIDPITSKSNSIQDLSKANDIKLPFLQGSGSSLLILGPNGCGKSSIQRIIAEIWPVYNKNGLLSIPSENNIFFIPQKPYFSRGGTLRDQIIYPMSSDEFFDRGFRDKELVQILVEVKLDYLLKRGVGLTYLDAIADWKDLLSGGEKQRVNFARIMFHKPLYVVLDEATNAISVDMEDYLFNLLKRYRFNFISISQRPTLIKYHEMLLEIGENRDGKWQLQAVGTDEAITSIDNEIEELERKLERVKGWEDERTKLREKLEII
B2: LexA BD-Pxa2_NBD-CT [S. cerevisiae] / Gal4 AD-Pxa1_NBD [S. cerevisiae] (parent complex)
chain 1: B1 chain 1
chain 2: SRLMHSIKDISQLTGYTNRIFTLLSVLHRVHSLNFNYGAVPSILSIRTEDASRNSNLLPTTDNSQDAIRGTIQRNFNGIRLENIDVIIPSVRASEGIKLINKLTFQIPLHIDPITSKSNSIQDLSKANDIKLPFLQGSGSSLLILGPNGCGKSSIQRIIAEIWPVYNKNGLLSIPSENNIFFIPQKPYFSRGGTLRDQIIYPMSSDEFFDRGFRDKELVQILVEVKLDYLLKRGVGLTYLDAIADWKDLLSGGEKQRVNFARIMFHKPLYVVLDE

Variants of: B1
Assay: yeast two-hybrid, quantified with Yeast β-Galactosidase Assay Kit (Thermo); n = 3; parent: 190; read off a plot

Row | response | Variant
1 | ~38 | chain 1 Y328L
2 | ~69 | chain 1 F333A

Variants of: B2
Assay: yeast two-hybrid, quantified with Yeast β-Galactosidase Assay Kit (Thermo); n = 3; parent: 185; read off a plot

Row | response | Variant
3 | ~17 | chain 1 Y328L
4 | ~41 | chain 1 F333A
